# From patent US20150344570A1 (published 2015)
# How the values were obtained:
# FcγRIIIa F = FcγRIIIa F (human, UniProt P08637 17-208); assay: SPR (Biacore), KD
# FcγRIIIa V = FcγRIIIa V (human, UniProt P08637 17-208); assay: SPR (Biacore), KD
# FcγRIIIa V, sequence (P08637 17-208): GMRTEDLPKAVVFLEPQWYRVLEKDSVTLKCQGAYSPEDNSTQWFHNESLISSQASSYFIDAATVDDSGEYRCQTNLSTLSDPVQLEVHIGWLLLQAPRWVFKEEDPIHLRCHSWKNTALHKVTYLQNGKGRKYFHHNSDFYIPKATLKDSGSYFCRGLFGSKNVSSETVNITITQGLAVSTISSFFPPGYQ
# FcγRIIIa F, sequence (P08637 17-208): as above
Binder,fold binding activity against H240-Kn033/H240-Hl033/L73-k0 (FcγRIIIa F) [fold],fold binding activity against H240-Kn033/H240-Hl033/L73-k0 (FcγRIIIa V) [fold]
"H240-Kn217/H240-Hl068/L73-k0 (antibody, human IgG1, kappa) heavy 1: QDQLVQSGAEVKKPGASVKVSCKASGFNIKDTYIQWVRQAPGQGLEWMGRIDPLRKQTKYREKFEGRVTITADTSTNTAYMELSSLRSEDTAVYYCVRSGREFDYWGQGTLVTVSSASTKGPSVFPLAPSSKSTSGGTAALGCLVKDYFPEPVTVSWNSGALTSGVHTFPAVLQSSGLYSLSSVVTVPSSSLGTQTYICNVNHKPSNTKVDKKVEPKSCDKTHTCPPCPAPEDYWGPMVFLFPPKPKDTLMISRTPEVTCVVVDVSDEDPEVKFNWYVDGVEVHNAKTKPREEQYNATYRVVSVLTVLHQDWLNGKEYKCKVSNKDLPAPIEKTISKAKGQPREPQVCTLPPSRDELTKNQVSLWCLVKGFYPSDIAVEWESNGQPENNYKTTPPVLDSDGSFFLYSKLTVDKSRWQQGNVFSCSVMHEALHNHYTQKSLSLSP heavy 2: QDQLVQSGAEVKKPGASVKVSCKASGFNIKDTYIQWVRQAPGQGLEWMGRIDPLRKQTKYREKFEGRVTITADTSTNTAYMELSSLRSEDTAVYYCVRSGREFDYWGQGTLVTVSSASTKGPSVFPLAPSSKSTSGGTAALGCLVKDYFPEPVTVSWNSGALTSGVHTFPAVLQSSGLYSLSSVVTVPSSSLGTQTYICNVNHKPSNTKVDKKVEPKSCDKTHTCPPCPAPELLGGPSVFLFPPKPKDTLMISRTPEVTCVVVDVSHEEPEVKFNWYVDGVEVHNAKTKPREEQYNSTYRVVSVLTVLHQDWLNGKEYKCKVSNDALPKPIEETISKAKGQPREPQVYTLPPSRCELTKNQVSLSCAVKGFYPSDIAVEWESNGQPENNYKTTPPVLDSDGSFFLVSKLTVDKSRWQQGNVFSCSVMHEALHNHYTQKSLSLSP light: DIQMTQSPSSLSASVGDRVTITCRASQDIHKYIAWYQQKPGQAPRLLIQYTSTLQPGVPSRFSGSGSGTDYTFTISSLQPEDIATYYCLQYEQLRTFGGGTKVEIKRTVAAPSVFIFPPSDEQLKSGTASVVCLLNNFYPREAKVQWKVDNALQSGNSQESVTEQDSKDSTYSLSSTLTLSKADYEKHKVYACEVTHQGLSSPVTKSFNRGEC",≥ 100,≥ 100
"H240-Kn221/H240-Hl068/L73-k0 (antibody, human IgG1, kappa) heavy 1: QDQLVQSGAEVKKPGASVKVSCKASGFNIKDTYIQWVRQAPGQGLEWMGRIDPLRKQTKYREKFEGRVTITADTSTNTAYMELSSLRSEDTAVYYCVRSGREFDYWGQGTLVTVSSASTKGPSVFPLAPSSKSTSGGTAALGCLVKDYFPEPVTVSWNSGALTSGVHTFPAVLQSSGLYSLSSVVTVPSSSLGTQTYICNVNHKPSNTKVDKKVEPKSCDKTHTCPPCPAPETYWGPMVFLFPPKPKDTLMISRTPEVTCVVVDVSDEDPEVKFNWYVDGVEVHNAKTKPREEQYNATYRVVSVLTVLHQDWLNGKEYKCKVSNKDLPAPIEKTISKAKGQPREPQVCTLPPSRDELTKNQVSLWCLVKGFYPSDIAVEWESNGQPENNYKTTPPVLDSDGSFFLYSKLTVDKSRWQQGNVFSCSVMHEALHNHYTQKSLSLSP heavy 2: QDQLVQSGAEVKKPGASVKVSCKASGFNIKDTYIQWVRQAPGQGLEWMGRIDPLRKQTKYREKFEGRVTITADTSTNTAYMELSSLRSEDTAVYYCVRSGREFDYWGQGTLVTVSSASTKGPSVFPLAPSSKSTSGGTAALGCLVKDYFPEPVTVSWNSGALTSGVHTFPAVLQSSGLYSLSSVVTVPSSSLGTQTYICNVNHKPSNTKVDKKVEPKSCDKTHTCPPCPAPELLGGPSVFLFPPKPKDTLMISRTPEVTCVVVDVSHEEPEVKFNWYVDGVEVHNAKTKPREEQYNSTYRVVSVLTVLHQDWLNGKEYKCKVSNDALPKPIEETISKAKGQPREPQVYTLPPSRCELTKNQVSLSCAVKGFYPSDIAVEWESNGQPENNYKTTPPVLDSDGSFFLVSKLTVDKSRWQQGNVFSCSVMHEALHNHYTQKSLSLSP light: DIQMTQSPSSLSASVGDRVTITCRASQDIHKYIAWYQQKPGQAPRLLIQYTSTLQPGVPSRFSGSGSGTDYTFTISSLQPEDIATYYCLQYEQLRTFGGGTKVEIKRTVAAPSVFIFPPSDEQLKSGTASVVCLLNNFYPREAKVQWKVDNALQSGNSQESVTEQDSKDSTYSLSSTLTLSKADYEKHKVYACEVTHQGLSSPVTKSFNRGEC",≥ 100,≥ 100
"H240-Kn199/H240-Hl068/L73-k0 (antibody, human IgG1, kappa) heavy 1: QDQLVQSGAEVKKPGASVKVSCKASGFNIKDTYIQWVRQAPGQGLEWMGRIDPLRKQTKYREKFEGRVTITADTSTNTAYMELSSLRSEDTAVYYCVRSGREFDYWGQGTLVTVSSASTKGPSVFPLAPSSKSTSGGTAALGCLVKDYFPEPVTVSWNSGALTSGVHTFPAVLQSSGLYSLSSVVTVPSSSLGTQTYICNVNHKPSNTKVDKKVEPKSCDKTHTCPPCPAPELYWGPMVFLFPPKPKDTLMISRTPEVTCVVVDVSDEDPEVKFNWYVDGVEVHNAKTKPREEQYNATYRVVSVLTVLHQDWLNGKEYKCKVSNKDLPAPIEKTISKAKGQPREPQVCTLPPSRDELTKNQVSLWCLVKGFYPSDIAVEWESNGQPENNYKTTPPVLDSDGSFFLYSKLTVDKSRWQQGNVFSCSVMHEALHNHYTQKSLSLSP heavy 2: QDQLVQSGAEVKKPGASVKVSCKASGFNIKDTYIQWVRQAPGQGLEWMGRIDPLRKQTKYREKFEGRVTITADTSTNTAYMELSSLRSEDTAVYYCVRSGREFDYWGQGTLVTVSSASTKGPSVFPLAPSSKSTSGGTAALGCLVKDYFPEPVTVSWNSGALTSGVHTFPAVLQSSGLYSLSSVVTVPSSSLGTQTYICNVNHKPSNTKVDKKVEPKSCDKTHTCPPCPAPELLGGPSVFLFPPKPKDTLMISRTPEVTCVVVDVSHEEPEVKFNWYVDGVEVHNAKTKPREEQYNSTYRVVSVLTVLHQDWLNGKEYKCKVSNDALPKPIEETISKAKGQPREPQVYTLPPSRCELTKNQVSLSCAVKGFYPSDIAVEWESNGQPENNYKTTPPVLDSDGSFFLVSKLTVDKSRWQQGNVFSCSVMHEALHNHYTQKSLSLSP light: DIQMTQSPSSLSASVGDRVTITCRASQDIHKYIAWYQQKPGQAPRLLIQYTSTLQPGVPSRFSGSGSGTDYTFTISSLQPEDIATYYCLQYEQLRTFGGGTKVEIKRTVAAPSVFIFPPSDEQLKSGTASVVCLLNNFYPREAKVQWKVDNALQSGNSQESVTEQDSKDSTYSLSSTLTLSKADYEKHKVYACEVTHQGLSSPVTKSFNRGEC",≥ 100,≥ 100
